# Patent US20190040153A1 (Novartis, published 2019)
# T1: human β-klotho (soluble, recombinant) (human, UniProt Q86Z14 53-997, limits assumed)
# T1 construct: also called recombinant human β-klotho; beta-klotho
# T1 sequence: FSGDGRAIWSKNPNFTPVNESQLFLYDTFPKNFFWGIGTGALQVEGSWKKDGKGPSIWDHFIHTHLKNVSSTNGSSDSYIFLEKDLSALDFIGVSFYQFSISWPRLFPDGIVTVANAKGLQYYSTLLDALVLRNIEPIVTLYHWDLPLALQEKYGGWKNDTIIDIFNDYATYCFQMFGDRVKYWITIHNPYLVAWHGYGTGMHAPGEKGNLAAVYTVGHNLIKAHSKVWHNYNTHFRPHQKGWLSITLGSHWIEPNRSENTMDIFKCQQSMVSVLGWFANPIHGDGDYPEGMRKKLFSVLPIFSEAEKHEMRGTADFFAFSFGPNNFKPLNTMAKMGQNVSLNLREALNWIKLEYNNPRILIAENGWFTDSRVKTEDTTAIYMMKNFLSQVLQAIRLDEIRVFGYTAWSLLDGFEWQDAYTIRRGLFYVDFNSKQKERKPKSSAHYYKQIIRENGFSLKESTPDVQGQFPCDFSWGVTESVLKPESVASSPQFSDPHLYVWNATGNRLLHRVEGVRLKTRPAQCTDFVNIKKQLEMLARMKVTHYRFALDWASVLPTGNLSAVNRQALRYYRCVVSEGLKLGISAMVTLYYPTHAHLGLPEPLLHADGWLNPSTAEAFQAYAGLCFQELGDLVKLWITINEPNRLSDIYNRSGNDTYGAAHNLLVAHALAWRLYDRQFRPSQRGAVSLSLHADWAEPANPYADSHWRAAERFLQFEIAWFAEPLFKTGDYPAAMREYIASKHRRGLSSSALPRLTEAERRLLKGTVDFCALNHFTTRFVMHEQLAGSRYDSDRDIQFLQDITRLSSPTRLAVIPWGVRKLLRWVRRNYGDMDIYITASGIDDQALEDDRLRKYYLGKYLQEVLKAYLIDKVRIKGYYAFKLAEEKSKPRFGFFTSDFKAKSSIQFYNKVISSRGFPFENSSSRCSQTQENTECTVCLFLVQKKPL
# Columns and labels:
# [1] = target: T1, human β-klotho (soluble, recombinant); assay: Biacore kinetics; IgG captured by anti-human Fc, human β-klotho as analyte
# Experimental: Binding affinities of antibodies were determined using Biacore kinetic analysis. A Series S Sensor Chip CMS (GE Healthcare, Cat. No. BR-1005-30) was equilibrated to ambient temperature for approximately 30 minutes The system was primed with 1×HBS-EP+ buffer (10×soln, GE Healthcare, Cat. No. BR-1006-69) and the chip was loaded into the Biacore instrument. The chip was normalized using BIAnormalizing (GE Healthcare, Cat. No. BR-1006-51) solution and the chip was conditioned with 50 mM NaOH using a flow rate of 60 μL/minute for all flow paths. The 30 second injection was repeated three times with a wait time of 60 seconds. 10 mM sodium acetate pH 5.0 was injected at 60 μL/minute for 120 seconds and repeated twice. After a new cycle was started for immobilizing the anti-human IgG Fc using the Human Antibody Capture Kit (GE Healthcare, Cat. No. BR-1008-39). The anti-human Fc Ab was diluted to 50 μg/mL in immobilization buffer (10 mM sodium acetate pH 5.0). The amine coupling reagents were mixed 1:1 (EDC and NHS) and injected for 7 minutes at 10 μL/minute. Then anti-human Fc Ab was injected for 6 minutes at 10 μL/minute. Lastly ethanolamine was injected for 7 minutes at 10 μL/minute with a wait time of 60 seconds. This should result in immobilization of approximately 8000-10000 RU. Then we performed test injections for an Rmax of 10 RUs (capture levels=˜28 RUs) for NOV004, NOV005 and NOV006. This was done using a flow rate of […] and a 3 M MgCl₂ regeneration buffer. Each flow cell was evaluated each time due to changes in chip surface, affinity of IgGs, IgG protein quality and differences in dilutions. We started with an IgG concentration of 0.5 ug/mL and increased (or decreased) the concentration depending on the results from the sample injections. […] After capturing parameters were determined for each antibody in each flow cell, human β-klotho at various concentrations was passed over the chip and kₐ (1/Ms), kd (1/s), KD (M), and Rmax (RU) were calculated by Biacore kinetics.
# In vitro work was done to show the binding and cell activity properties of NOV004, NOV005, and NOV006. […]
# [2] = target: human FGFR1c_β-klotho receptor complex (on HEK293 cells) (human, UniProt P11362 22-822); assay: cell-based or functional assay
# [3] = target: cynomolgus monkey FGFR1c_β-klotho receptor complex (on HEK293 cells) (cynomolgus monkey; human, UniProt A0A2K5WB58 1-1044; P11362 22-822); assay: cell-based or functional assay
# cynomolgus monkey FGFR1c_β-klotho receptor complex (on HEK293 cells), sequence (chain, as listed by the source, chain 1 of 2): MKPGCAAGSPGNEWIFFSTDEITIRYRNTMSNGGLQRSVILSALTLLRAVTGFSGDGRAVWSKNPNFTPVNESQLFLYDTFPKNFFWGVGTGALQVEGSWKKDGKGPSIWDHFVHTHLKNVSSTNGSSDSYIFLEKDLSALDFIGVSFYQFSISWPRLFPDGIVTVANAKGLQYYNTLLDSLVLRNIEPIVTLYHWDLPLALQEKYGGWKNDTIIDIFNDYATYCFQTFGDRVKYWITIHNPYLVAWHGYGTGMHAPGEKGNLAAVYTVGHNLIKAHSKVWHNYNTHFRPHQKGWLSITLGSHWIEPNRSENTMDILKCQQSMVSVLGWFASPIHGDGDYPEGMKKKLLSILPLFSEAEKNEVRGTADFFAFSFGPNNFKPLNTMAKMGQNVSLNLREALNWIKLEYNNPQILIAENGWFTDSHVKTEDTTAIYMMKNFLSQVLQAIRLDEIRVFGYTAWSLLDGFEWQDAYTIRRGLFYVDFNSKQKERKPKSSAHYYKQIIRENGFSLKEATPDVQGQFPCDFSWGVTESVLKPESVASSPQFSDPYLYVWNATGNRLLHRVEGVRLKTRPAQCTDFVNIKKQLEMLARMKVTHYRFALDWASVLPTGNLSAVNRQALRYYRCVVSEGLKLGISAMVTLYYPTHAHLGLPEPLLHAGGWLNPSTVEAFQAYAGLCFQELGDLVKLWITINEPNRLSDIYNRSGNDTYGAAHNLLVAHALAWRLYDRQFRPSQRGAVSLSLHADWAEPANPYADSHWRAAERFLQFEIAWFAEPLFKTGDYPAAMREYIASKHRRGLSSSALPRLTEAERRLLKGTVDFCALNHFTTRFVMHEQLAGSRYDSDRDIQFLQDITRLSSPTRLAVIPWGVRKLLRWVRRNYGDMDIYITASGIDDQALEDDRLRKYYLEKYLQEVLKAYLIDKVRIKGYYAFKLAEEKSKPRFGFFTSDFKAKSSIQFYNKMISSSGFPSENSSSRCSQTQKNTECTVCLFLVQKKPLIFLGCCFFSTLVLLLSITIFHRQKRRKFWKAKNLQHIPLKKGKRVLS
# cynomolgus monkey FGFR1c_β-klotho receptor complex (on HEK293 cells), sequence (P11362 22-822, chain 2 of 2): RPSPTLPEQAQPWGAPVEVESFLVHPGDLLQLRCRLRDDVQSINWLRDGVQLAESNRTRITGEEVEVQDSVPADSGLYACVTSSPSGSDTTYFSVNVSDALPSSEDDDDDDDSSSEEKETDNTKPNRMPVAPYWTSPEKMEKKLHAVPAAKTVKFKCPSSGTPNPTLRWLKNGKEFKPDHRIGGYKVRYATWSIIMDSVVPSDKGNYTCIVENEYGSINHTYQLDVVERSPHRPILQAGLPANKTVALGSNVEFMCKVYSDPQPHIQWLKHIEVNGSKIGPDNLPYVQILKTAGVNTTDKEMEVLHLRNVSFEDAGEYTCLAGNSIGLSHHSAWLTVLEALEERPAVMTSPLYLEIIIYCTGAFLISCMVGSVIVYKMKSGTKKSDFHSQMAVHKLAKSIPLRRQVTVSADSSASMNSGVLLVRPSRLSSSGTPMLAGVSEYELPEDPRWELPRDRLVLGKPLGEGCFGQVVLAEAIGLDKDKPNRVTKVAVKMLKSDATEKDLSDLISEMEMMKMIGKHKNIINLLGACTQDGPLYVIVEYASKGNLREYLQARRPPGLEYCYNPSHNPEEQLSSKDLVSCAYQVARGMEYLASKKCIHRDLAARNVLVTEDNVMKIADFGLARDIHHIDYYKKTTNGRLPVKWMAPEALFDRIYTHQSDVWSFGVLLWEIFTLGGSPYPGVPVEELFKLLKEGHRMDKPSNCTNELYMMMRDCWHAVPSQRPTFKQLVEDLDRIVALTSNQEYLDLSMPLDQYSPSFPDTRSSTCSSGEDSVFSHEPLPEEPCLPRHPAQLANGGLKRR
# human FGFR1c_β-klotho receptor complex (on HEK293 cells), sequence (chain, as listed by the source, chain 1 of 2): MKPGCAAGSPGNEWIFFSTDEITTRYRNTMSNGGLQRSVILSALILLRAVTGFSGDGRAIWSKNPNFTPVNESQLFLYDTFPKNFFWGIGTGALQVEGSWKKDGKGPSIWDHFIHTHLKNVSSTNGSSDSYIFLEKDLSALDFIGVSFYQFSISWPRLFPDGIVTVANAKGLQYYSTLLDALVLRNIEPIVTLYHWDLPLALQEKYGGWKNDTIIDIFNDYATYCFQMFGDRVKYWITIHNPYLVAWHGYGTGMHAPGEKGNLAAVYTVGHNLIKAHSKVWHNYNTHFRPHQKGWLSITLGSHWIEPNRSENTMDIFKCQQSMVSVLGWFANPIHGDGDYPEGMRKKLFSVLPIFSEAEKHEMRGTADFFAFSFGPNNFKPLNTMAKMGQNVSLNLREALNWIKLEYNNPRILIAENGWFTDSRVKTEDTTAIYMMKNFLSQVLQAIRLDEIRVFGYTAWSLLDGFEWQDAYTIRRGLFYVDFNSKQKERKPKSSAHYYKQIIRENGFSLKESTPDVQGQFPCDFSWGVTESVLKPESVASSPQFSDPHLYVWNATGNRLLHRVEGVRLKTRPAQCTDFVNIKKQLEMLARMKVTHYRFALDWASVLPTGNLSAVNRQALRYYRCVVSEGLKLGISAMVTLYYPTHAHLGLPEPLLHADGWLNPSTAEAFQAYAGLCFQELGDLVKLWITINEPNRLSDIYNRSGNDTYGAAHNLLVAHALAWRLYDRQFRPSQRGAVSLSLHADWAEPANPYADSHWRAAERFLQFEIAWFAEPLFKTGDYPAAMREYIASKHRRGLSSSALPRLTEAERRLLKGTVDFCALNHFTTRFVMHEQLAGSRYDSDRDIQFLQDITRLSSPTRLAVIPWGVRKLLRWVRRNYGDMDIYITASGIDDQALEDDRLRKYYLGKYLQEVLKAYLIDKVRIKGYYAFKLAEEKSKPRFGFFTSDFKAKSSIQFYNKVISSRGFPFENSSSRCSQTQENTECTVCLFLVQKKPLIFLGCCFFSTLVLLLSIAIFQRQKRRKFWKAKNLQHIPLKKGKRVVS
# human FGFR1c_β-klotho receptor complex (on HEK293 cells), sequence (P11362 22-822, chain 2 of 2): as the sequence (P11362 22-822, chain 2 of 2) above
Kd [1] [nM],pERK activation EC50 [2] [nM],pERK activation EC50 [3] [nM],Binder
~0.4,~4,~18,"NOV006 (antibody, human IgG1, kappa, V domains shown, Humanized mAb derived from mouse hybridoma 127F19) VH: QVQLQESGPGLVKPSQTLSLTCTVSGYSITSGYTWHWIRQHPGKGLEWIGYIHYSVYTNYNPSLKSRVTISRDTSKNQFSLKLSSVTAADTAVYYCARRTTSLERYFDVWGQGTLVTVSS VL: EIVMTQSPATLSLSPGERATLSCRASQDISNYLNWYQQKPGQAPRLLIYYTSRLQSGIPARFSGSGSGADYTLTISSLQPEDFAVYFCQQGNTLPYTFGQGTKLEIKR"
~0.3,~3,~20,"NOV004 (antibody, human IgG1, kappa, V domains shown, Humanized mAb derived from mouse hybridoma 127F19) VH: EVQLVESGGGLVKPGGSLRLSCAVSGYSITSGYTWHWVRQAPGKGLEWLSYIHYSVYTNYNPSVKGRFTISRDTAKNSFYLQMNSLRAEDTAVYYCARRTTSLERYFDVWGQGTLVTVSS VL: DIQMTQSPSSLSASVGDRVTITCQASQDISNYLNWYQQKPGKAPKLLIYYTSRLQSGVPSRFTGSGSGADYTFTISSLQPEDIATYFCQQGNTLPYTFGQGTKLEIKR"
~0.3,~3,~16,"NOV005 (antibody, human IgG1, kappa, V domains shown, Humanized mAb derived from mouse hybridoma 127F19) VH: QVQLQESGPGLVKPSQTLSLTCTVSGYSITSGYTWHWIRQHPGKGLEWIGYIHYSVYTNYNPSLKSRVTISRDTSKNQFSLKLSSVTAADTAVYYCARRTTSLERYFDVWGQGTLVTVSS VL: DIQMTQSPSSLSASVGDRVTITCQASQDISNYLNWYQQKPGKAPKLLIYYTSRLQSGVPSRFSGSGSGADYTFTISSLQPEDIATYFCQQGNTLPYTFGQGTKLEIKR"
